Experimental data taken from the supplement of paper PMC10724198.
± gives the standard deviation of the averaged measurements.

Assays:
[1] = system: Saccharomyces cerevisiae; experiment: protein stability index of tFT-peptide fusion (C-terminal peptide) (PSI (0-1 scale)); higher = more stable (slower turnover)
Method: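 MPS profiling in S. cerevisiae of the tFT-X12 degron library: putative degron peptides plus stable controls, 12 aa, fused to the C-terminus of a sfGFP-mCherry timer. Cells are FACS-sorted into 8 mCherry/sfGFP bins and deep-sequenced. PSI runs from 0 (unstable) to 1 (stable). Backgrounds are wild type, das1Δ and doa10Δ at 30 °C, and wild type, das1Δ, cdc34-1 and cdc53-1 at 37 °C; 2-3 technical replicates each.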

[2] = system: Saccharomyces cerevisiae; experiment: as above; details: genetic background: wild type; temperature: 30 C
[3] = genetic background: cdc34-1, temperature: 37 C
[4] = genetic background: cdc53-1, temperature: 37 C
[5] = genetic background: das1 deletion, temperature: 30 C
[6] = genetic background: das1 deletion, temperature: 37 C
[7] = genetic background: doa10 deletion, temperature: 30 C
[8] = genetic background: wild type, temperature: 30 C
[9] = genetic background: wild type, temperature: 37 C
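Note: PSI is a weighted mean of sequencing reads over stability bins, variants kept only with over 10 reads, mCherry proximal and sfGFP distal, peptide attached via GGGS linker.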

Sequence | protein stability index [1, 3] | protein stability index [1, 4] | protein stability index [1, 5] | protein stability index [1, 6] | protein stability index [1, 7] | protein stability index [1, 8] | protein stability index [1, 9] | protein stability index [2]
FLSRVVLVVLLV | 0.258 ± 0.018 | 0.333 ± 0.006 | 0.245 ± 0.029 | 0.43 ± 0.02 | 0.196 ± 0.015 | 0.215 ± 0.034 | 0.339 ± 0.029 | 0.288 ± 0.026
FLVIILFFLYMR | 0.144 ± 0.043 | 0.0943 ± 0.015 | 0.176 ± 0.042 | 0.232 ± 0.023 | 0.398 ± 0.017 | 0.184 ± 0.041 | 0.185 ± 0.02 | 0.209 ± 0.011
FLYSVLLICKFI | 0.214 ± 0.029 | 0.258 ± 0.016 | 0.224 ± 0.037 | 0.389 ± 0.013 | 0.118 ± 0.016 | 0.0757 ± 0.035 | 0.0829 ± 0.034 | 0.135 ± 0.12
FMANRYICQKTL | 0.522 ± 0.074 | 0.731 ± 0.018 | 0.635 ± 0.026 | 0.727 ± 0.01 | 0.0893 ± 0.023 | 0.0967 ± 0.022 | 0.168 ± 0.017 | 0.185 ± 0.012
FPCRNFMVFFCF | 0.425 ± 0.029 | 0.442 ± 0.008 | 0.43 ± 0.035 | 0.505 ± 0.0097 | 0.211 ± 0.0036 | 0.204 ± 0.0085 | 0.285 ± 0.03 | 0.29 ± 0.03
FPFPLSSFLLLY | 0.385 ± 0.015 | 0.401 ± 0.018 | 0.41 ± 0.032 | 0.516 ± 0.011 | 0.415 ± 0.028 | 0.331 ± 0.019 | 0.444 ± 0.0087 | 0.4195 ± 0.0039
FRSMFLFLNLLF | 0.458 ± 0.05 | 0.3523 ± 0.00055 | 0.391 ± 0.048 | 0.73 ± 0.02 | 0.559 ± 0.015 | 0.371 ± 0.019 | 0.574 ± 0.025 | 0.412 ± 0.014
FSFEGVLVPLLV | 0.31519 ± 3.7e-05 | 0.301 ± 0.043 | 0.288 ± 0.036 | 0.4113 ± 0.00044 | 0.249 ± 0.0058 | 0.287 ± 0.033 | 0.384 ± 0.0086 | 0.396 ± 0.015
FSFFLYFFLLLF | 0.327 ± 0.025 | 0.304 ± 0.0072 | 0.31 ± 0.026 | 0.402 ± 0.016 | 0.392 ± 0.032 | 0.271 ± 0.034 | 0.389 ± 0.016 | 0.315 ± 0.0031
FSGRYFLLFRFL | 0.238 ± 0.035 | 0.28 ± 0.0032 | 0.341 ± 0.0075 | 0.389 ± 0.0091 | 0.083 ± 0.015 | 0.0605 ± 0.014 | 0.144 ± 0.038 | 0.104 ± 0.019
FSLLTWPFVFLV | 0.126 ± 0.021 | 0.0782 ± 0.0059 | 0.252 ± 0.041 | 0.346 ± 0.037 | 0.0816 ± 0.015 | 0.0575 ± 0.0078 | 0.0613 ± 0.011 | 0.08711 ± 0.00051
FVCWGSLILCGG | 0.151 ± 0.0074 | 0.1833 ± 0.0012 | 0.19 ± 0.028 | 0.29 ± 0.0062 | 0.1516 ± 0.00087 | 0.181 ± 0.027 | 0.258 ± 0.0085 | 0.264 ± 0.012
FVFAMSECIVLS | 0.269 ± 0.014 | 0.318 ± 0.0043 | 0.205 ± 0.025 | 0.393 ± 0.0046 | 0.269 ± 0.0044 | 0.214 ± 0.022 | 0.364 ± 0.00049 | 0.308 ± 0.0053
FVLWLIYVDLFF | 0.214 ± 0.039 | 0.234 ± 0.013 | 0.196 ± 0.048 | 0.342 ± 0.015 | 0.181 ± 0.019 | 0.22 ± 0.033 | 0.339 ± 0.041 | 0.287 ± 0.094
FVSHRRFSLFLY | 0.584 ± 0.038 | 0.691 ± 0.011 | 0.602 ± 0.019 | 0.726 ± 0.046 | 0.124 ± 0.0019 | 0.143 ± 0.021 | 0.203 ± 0.019 | 0.209 ± 0.02
FVVLVFMLGSVC | 0.274 ± 0.035 | 0.379 ± 0.029 | 0.254 ± 0.044 | 0.454 ± 0.044 | 0.234 ± 0.0062 | 0.245 ± 0.049 | 0.426 ± 0.035 | 0.365 ± 0.037
FVVVGLGLLCLA | 0.492 ± 0.0066 | 0.565 ± 0.011 | 0.362 ± 0.027 | 0.569 ± 0.0068 | 0.257 ± 0.015 | 0.305 ± 0.02 | 0.491 ± 0.014 | 0.473 ± 0.013
FVWVVRMLVFVP | 0.178 ± 0.0058 | 0.2493 ± 0.00099 | 0.187 ± 0.025 | 0.383 ± 0.023 | 0.165 ± 0.008 | 0.16 ± 0.025 | 0.3 ± 0.0077 | 0.276 ± 0.017
FWHGRCPGLYLV | 0.583 ± 0.11 | 0.639 ± 0.018 | 0.607 ± 0.012 | 0.7263 ± 0.0042 | 0.163 ± 0.009 | 0.169 ± 0.03 | 0.304 ± 0.005 | 0.27 ± 0.0087
FYIRFYVYSWLF | 0.376 ± 0.0093 | 0.441 ± 0.011 | 0.304 ± 0.051 | 0.492 ± 0.0077 | 0.278 ± 0.0083 | 0.303 ± 0.01 | 0.46 ± 0.0047 | 0.3604 ± 0.0023

Sequence | protein stability index [1, 3] | protein stability index [1, 4] | protein stability index [1, 5] | protein stability index [1, 6] | protein stability index [1, 7] | protein stability index [1, 8] | protein stability index [1, 9] | protein stability index [2]
FYLSSCFLFLRF | 0.174 ± 0.052 | 0.136 ± 0.046 | 0.311 ± 0.012 | 0.33618 ± 0.0003 | 0.62 ± 0.04 | 0.288 ± 0.017 | 0.305 ± 0.023 | 0.355 ± 0.0087
GAVRRWGGVSFV | 0.626 ± 0.041 | 0.707 ± 0.026 | 0.643 ± 0.011 | 0.707 ± 0.032 | 0.662 ± 0.028 | 0.664 ± 0.0068 | 0.679 ± 0.015 | 0.259 ± 0.068
GDLEFCCLIIVL | 0.4401 ± 0.0033 | 0.556 ± 0.072 | 0.302 ± 0.018 | 0.5755 ± 0.005 | 0.27 ± 0.042 | 0.306 ± 0.032 | 0.5052 ± 0.0033 | 0.321 ± 0.0098
GELPGELYKFWL | 0.769 ± 0.052 | 0.7774 ± 0.005 | 0.664 ± 0.022 | 0.7558 ± 0.0025 | 0.671 ± 0.024 | 0.671 ± 0.016 | 0.743 ± 0.021 | 0.754 ± 0.03
GFFLLSFLFFVR | 0.148 ± 0.0056 | 0.181 ± 0.037 | 0.212 ± 0.023 | 0.393 ± 0.034 | 0.234 ± 0.02 | 0.195 ± 0.021 | 0.311 ± 0.007 | 0.224 ± 0.032
GFGDKVPWRWVI | 0.606 ± 0.037 | 0.759 ± 0.022 | 0.657 ± 0.026 | 0.7816 ± 0.0045 | 0.124 ± 0.01 | 0.135 ± 0.0096 | 0.244 ± 0.0061 | 0.227 ± 0.045
GFSVFSHSVWVR | 0.133 ± 0.044 | 0.0797 ± 0.0059 | 0.19 ± 0.032 | 0.271 ± 0.012 | 0.437 ± 0.016 | 0.194 ± 0.011 | 0.238 ± 0.013 | 0.313 ± 0.014
GGICVVAYWRLA | 0.4654 ± 0.0011 | 0.518 ± 0.006 | 0.388 ± 0.034 | 0.564 ± 0.01 | 0.0948 ± 0.013 | 0.105 ± 0.021 | 0.173 ± 0.0065 | 0.198 ± 0.025
GGMGLWCCVSVG | 0.665 ± 0.01 | 0.6779 ± 0.0056 | 0.528 ± 0.027 | 0.68341 ± 0.00034 | 0.513 ± 0.015 | 0.54 ± 0.015 | 0.651 ± 0.0083 | 0.527 ± 0.099
GGRSLYAILCAV | 0.3216 ± 0.0018 | 0.393 ± 0.018 | 0.277 ± 0.028 | 0.4669 ± 0.0034 | 0.166 ± 0.021 | 0.197 ± 0.027 | 0.261 ± 0.011 | 0.321 ± 0.03
GGSLWLVHLKTI | 0.604 ± 0.059 | 0.761 ± 0.038 | 0.633 ± 0.035 | 0.718 ± 0.025 | 0.118 ± 0.026 | 0.158 ± 0.011 | 0.275 ± 0.082 | 0.181 ± 0.044
GGTFWDGLVLVH | 0.34 ± 0.023 | 0.418 ± 0.03 | 0.32 ± 0.028 | 0.484 ± 0.0082 | 0.274 ± 0.013 | 0.334 ± 0.035 | 0.45476 ± 9.2e-06 | 0.497 ± 0.097
GGYGAGLRSPLF | 0.709 ± 0.04 | 0.755 ± 0.013 | 0.6761 ± 0.0025 | 0.741 ± 0.015 | 0.664 ± 0.014 | 0.661 ± 0.0099 | 0.729 ± 0.022 | 0.736 ± 0.044
GINHLSLKLRLF | 0.647 ± 0.049 | 0.723 ± 0.017 | 0.631 ± 0.014 | 0.7423 ± 0.0037 | 0.109 ± 0.037 | 0.133 ± 0.0058 | 0.288 ± 0.01 | 0.262 ± 0.017
GIVSGEGAVGVG | 0.46 ± 0.041 | 0.511 ± 0.025 | 0.468 ± 0.0097 | 0.5212 ± 0.0039 | 0.488 ± 0.022 | 0.466 ± 0.011 | 0.4989 ± 0.0019 | 0.509 ± 0.025
GIVYFDQWISVS | 0.546 ± 0.031 | 0.538 ± 0.082 | 0.393 ± 0.022 | 0.571 ± 0.016 | 0.321 ± 0.0069 | 0.347 ± 0.02 | 0.544 ± 0.0084 | 0.461 ± 0.052
GLACNPQLLRWT | 0.692 ± 0.014 | 0.7433 ± 0.0064 | 0.653 ± 0.018 | 0.7437 ± 0.0035 | 0.665 ± 0.035 | 0.654 ± 0.027 | 0.7175 ± 0.0069 | 0.756 ± 0.051
GLFGFASPPPPS | 0.678 ± 0.042 | 0.7583 ± 0.0047 | 0.677 ± 0.016 | 0.749 ± 0.0081 | 0.6784 ± 0.0035 | 0.71 ± 0.021 | 0.722 ± 0.011 | 0.25 ± 0.032
GLLAEPALLLLS | 0.661 ± 0.06 | 0.699 ± 0.027 | 0.618 ± 0.0073 | 0.724 ± 0.023 | 0.604 ± 0.037 | 0.62 ± 0.025 | 0.6881 ± 0.0066 | 0.499 ± 0.1
